Laboratory results as given in paper PMC11772769, “Selective cargo and membrane recognition by SNX17 regulates its interaction with Retriever” (EMBO Reports, 2024).

B1: unnamed (parent)
chain 1: MHFSIPETESRSGDSGGSAYVAYNIHVNGVLHCRVRYSQLLGLHEQLRKEYGANVLPAFPPKKLFSLTPAEVEQRREQLEKYMQAVRQDPLLGSSETFNSFLRRAQQETQQVPTEEVSLEVLLSNGQKVLVNVLTSDQTEDVLEAVAAKLDLPDDLIGYFSLFLVREKEDGAFSFVRKLQEFELPYVSVTSLRSQEYKIVLRKSYWDSAYDDDVMENRVGLNLLYAQTVSDIERGWILVTKEQHRQLKSLQEKVSKKEFLRLAQTLRHYGYLRFDACVADFPEKDCPVVVSAGNSELSLQLRLPGQQLREGSFRVTRMRCWRVTSSVPLPSGSTSSPGRGRGEVRLELAFEYLMSKDRLQWVTITSPQAIMMSICLQSMVDELMVKKSGGSIRKMLRRRVGGTLRRSDSQQAVKSPPLLESPDATRESMVKLSSKLSAVSLRGIGSPSTDASASDVHGNFAFEGIGDEDL
chain 2: not shown

Variants of: B1
Assay: fluorescence anisotropy
Conditions: with partner chain of the complex shown; 5-FAM-labeled L2 14-mer peptide

| Variant | Kd [µM] |
| --- | --- |
| chain 1 W321A | 76 |
| chain 1 H457A | 1.1 |
